{
  "source": "patent US20060067940A1",
  "about": "(WASHINGTON UNIVERSITY, published 2006)",
  "target": "T1, WNV E protein on virions of WNV New York strain (lineage I) (West Nile virus (New York strain), UniProt Q9Q6P4 291-791)",
  "T1 sequence (looked up)": "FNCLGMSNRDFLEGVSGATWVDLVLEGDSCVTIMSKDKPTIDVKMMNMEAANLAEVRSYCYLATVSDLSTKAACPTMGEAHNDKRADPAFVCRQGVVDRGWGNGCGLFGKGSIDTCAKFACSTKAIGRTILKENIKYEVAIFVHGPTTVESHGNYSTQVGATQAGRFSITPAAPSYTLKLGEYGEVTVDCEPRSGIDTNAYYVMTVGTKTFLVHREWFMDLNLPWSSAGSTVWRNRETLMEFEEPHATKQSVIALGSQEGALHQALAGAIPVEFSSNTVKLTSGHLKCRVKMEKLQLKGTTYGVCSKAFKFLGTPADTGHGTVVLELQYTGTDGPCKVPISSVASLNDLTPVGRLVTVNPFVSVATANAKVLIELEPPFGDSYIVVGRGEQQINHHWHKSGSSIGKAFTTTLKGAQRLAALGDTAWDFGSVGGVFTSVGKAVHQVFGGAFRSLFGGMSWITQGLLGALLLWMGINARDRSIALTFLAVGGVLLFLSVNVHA",
  "assay": "cell-based or functional assay",
  "data": [
    {"binder": "WNV E16 (monoclonal antibody produced by hybridoma clone E16 C4 E4, ATCC PTA-6050) (antibody, V domains shown) VH: QVQLQQSGSELMKPGASVQISCKATGYTFSDYWIEWVKQRPGHGLEWIGDILCGTGRTRYNEKLKAMATFTADTSSNTAFMQLSSLTSEDSAVYYCARSASYGDYADYWGHGTTLTVSS VL: DIVMTQSHKFMSTSVGDRVSITCKASQDVSTAVAWYQQKPGQSPKLLISWASTRHTGVPDRFTGSGSGTDYTLTISSVQAEDLALYYCQQHYTTPLTFGAGTKLELK", "values": [
      {"measurement": "PRNT assay, potency against human γ-globulin preparation", "result": "~1000", "unit": "fold"}
    ]}
  ]
}
